# In patent publication US20240059799A1 (Pfizer, published 2024):
# T1: recombinant human TL1A (human, UniProt O95150 71-251)
# T1 construct: The ELISA method says only 'recombinant TL1A' coated on plates; homotrimeric cytokine; also called TNFSF15; recombinant TL1A
# T1 chain: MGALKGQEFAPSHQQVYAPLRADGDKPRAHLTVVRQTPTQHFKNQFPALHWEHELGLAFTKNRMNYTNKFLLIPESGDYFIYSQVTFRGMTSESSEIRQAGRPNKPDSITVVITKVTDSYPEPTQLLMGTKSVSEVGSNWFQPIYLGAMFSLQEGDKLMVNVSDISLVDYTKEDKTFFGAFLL
# Target: T1, recombinant human TL1A
# Test: competition ELISA on coated recombinant TL1A; competitor biotinylated TL1A-0002
# Protocol: For this competition ELISA assay procedure, 96-well high binding plates (Corning, product number 3590) were coated with 1 μg/mL recombinant TL1A in 100 μL/well in Phospate Buffered Saline (PBS) overnight at 4° C. Plates were then blocked in PBS+0.02% casein solution and washed with PBS+0.05% Tween-20 following standard ELISA protocol. […] Plates were washed with PBS+0.05% Tween-20 following standard ELISA protocol, and Streptavidin-HRP (Southern Biotech, product number 7100-05) diluted to 1:10,000 in assay buffer was added to plates and incubated for 25-30 minutes at room temperature. Next, the plates were washed with PBS+0.05% Tween-20 following standard ELISA protocol, and then TMB substrate (BioFX Laboratories, catalog number TMBW-0100-01) was added to plates. Reactions were stopped after approximately 5 minutes by adding 0.18 M ortho-phosphoric acid to each well and absorbance was read at 450 nm.
Bioactivity relative to TL1A-0002,IC50,Binder
1 fold,5 nM,"TL1A-0002 (antibody, human IgG1, kappa, V domains shown, human IgG1 effector-function-minimized / human kappa; also called parental TL1A-0002 antibody) VH: QVQLVQSGAEVKKPGASVKVSCKASGYDFTYYGISWVRQAPGQGLEWMGWISTYNGNTHYARMLQGRVTMTTDTSTRTAYMELRSLRSDDTAVYYCARENYYGSGAYRGGMDVWGQGTTVTVSS VL: EIVLTQSPATLSLSPGERATLSCRASQSVSSYLAWYQQKPGQAPRLLIYDASNRATGIPARFSGSGSGTDFTLTISSLEPEDFAVYYCQQRSNWPWTFGQGTKVEIKR"
2.7 fold,13.5 nM,"TL1A-0252 (antibody, V domains shown, IgG1 effector-minimized/kappa) VH: QVQLVQSGAEVKKPGASVKVSCKASGYDFTYYGISWVRQAPGQGLEWMGWISTYNTNTHYAPSLQGRVTMTTDTSTSTAYMELRSLRSDDTAVYYCARESYYGSGAFRGGMDVWGQGTTVTVSS VL: DIQMTQSPSSLSASVGDRVTITCRASQSVSSYLAWYQQKPGKAPKLLIYDASNRATGVPSRFSGSGSGTDFTLTISSLQPEDFATYYCQQRSNWPWTFGQGTKVEIKR"
3.2 fold,16.2 nM,"TL1A-0242 (antibody, V domains shown, IgG1 effector-minimized/kappa) VH: QVQLVQSGAEVKKPGASVKVSCKASGYDFTYYGISWVRQAPGQGLEWMGWISTYNDNTHYAPSLQGRVTMTTDTSTSTAYMELRSLRSDDTAVYYCARESYYGSGAFRGGMDVWGQGTTVTVSS VL: DIQMTQSPSSLSASVGDRVTITCRASQSVSSYLAWYQQKPGKAPKLLIYDASNRATGVPSRFSGSGSGTDFTLTISSLQPEDFATYYCQQRSNWPWTFGQGTKVEIKR"
3.2 fold,16.2 nM,"TL1A-0245 (antibody, V domains shown, IgG1 effector-minimized/kappa) VH: QVQLVQSGAEVKKPGASVKVSCKASGYDFTYYGISWVRQAPGQGLEWMGWISTYNDNTHYAQKLQGRVTMTTDTSTSTAYMELRSLRSDDTAVYYCARESYYGSGAHRGGMDVWGQGTTVTVSS VL: DIQMTQSPSSLSASVGDRVTITCRASQSVSSYLAWYQQKPGKAPKLLIYDASNRATGVPSRFSGSGSGTDFTLTISSLQPEDFATYYCQQRSNWPWTFGQGTKVEIKR"
3.5 fold,17.6 nM,"TL1A-0244 (antibody, V domains shown, IgG1 effector-minimized/kappa) VH: QVQLVQSGAEVKKPGASVKVSCKASGYDFTYYGISWVRQAPGQGLEWMGWISTYNDNTHYAQKLQGRVTMTTDTSTSTAYMELRSLRSDDTAVYYCARESYYGSGAFRGGMDVWGQGTTVTVSS VL: DIQMTQSPSSLSASVGDRVTITCRASQSVSSYLAWYQQKPGKAPKLLIYDASNRATGVPSRFSGSGSGTDFTLTISSLQPEDFATYYCQQRSNWPWTFGQGTKVEIKR"
0.8 fold,3.8 nM,"TL1A-0189 (antibody, human IgG1, kappa, V domains shown, IgG1 effector-minimized/kappa) VH: QVQLVQSGAEVKKPGASVKVSCKASGYDFTYYGISWVRQAPGQGLEWMGWISTYNGNTHYARMLQGRVTMTTDTSTSTAYMELRSLRSDDTAVYYCARENYYGSGAYRGGMDVWGQGTTVTVSS VL: DIQMTQSPSSLSASVGDRVTITCRASQSVSSYLAWYQQKPGKAPKLLIYDASNRATGVPSRFSGSGSGTDFTLTISSLQPEDFATYYCQQRSNWPWTFGQGTKVEIKR"
2.9 fold,14.5 nM,"TL1A-0243 (antibody, V domains shown, IgG1 effector-minimized/kappa) VH: QVQLVQSGAEVKKPGASVKVSCKASGYDFTYYGISWVRQAPGQGLEWMGWISTYNDNTHYAPSLQGRVTMTTDTSTSTAYMELRSLRSDDTAVYYCARESYYGSGAHRGGMDVWGQGTTVTVSS VL: DIQMTQSPSSLSASVGDRVTITCRASQSVSSYLAWYQQKPGKAPKLLIYDASNRATGVPSRFSGSGSGTDFTLTISSLQPEDFATYYCQQRSNWPWTFGQGTKVEIKR"
0.8 fold,4.2 nM,"TL1A-0042 (antibody, human IgG1, kappa, V domains shown, TL1A-0002 heavy chain with light chain CDRs grafted onto IGKV1-39*01; human IgG1 effector-function-minimized / human kappa) VH: QVQLVQSGAEVKKPGASVKVSCKASGYDFTYYGISWVRQAPGQGLEWMGWISTYNGNTHYARMLQGRVTMTTDTSTRTAYMELRSLRSDDTAVYYCARENYYGSGAYRGGMDVWGQGTTVTVSS VL: DIQMTQSPSSLSASVGDRVTITCRASQSVSSYLAWYQQKPGKAPKLLIYDASNRATGVPSRFSGSGSGTDFTLTISSLQPEDFATYYCQQRSNWPWTFGQGTKVEIKR"
